± gives the uncertainty stated by the source.
Test: self-splicing fitness, log relative to wild type (ln ratio); higher = more splicing; Tetrahymena group I intron in knt gene, E. coli kanamycin selection, DiMSum; sequences stand for … in CUCUCU…GGAGGGAAAAGUUAUCAGGCAUGCACCUGGUAGCUAGUCUUUAAACCAAUAGAUUGCAUCGGUUUAAAAGGCAAGACCGUCAAAUUGCGGGAAAGGGGUCAACAGCCGUUCAGUACCAAGUCUCAGGGGAAACUUUGAGAUGGCCUUGCAAAGGGUAUGGUAAUAAGCUGACGGACAUGGUCCUAACCACGCAGCCAAGUCCUAAGUCAACAGAUCUUCUGUUGAUAUGGAUGCAGUUCACAGACUAAAUGUCGGUCGGGGAAGAUGUAUUCUUCUCAUAAGAUAUAGUCGGACCUCUCCUUAAUGGGAGCUAGCGGAUGAAGUGAUGCAACACUGGAGCCGCUGGGAACUAAUUUGUAUGCGAAAGUAUAUUGAUUAGUUUUGGAGUACUCGUGGUCG
Summary of the method: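 The eight P1ex-region nucleotides of an intron in the knt kanamycin-resistance gene on pET-22b(+) were all randomised and the library put into E. coli BL21(DE3). Six replicate transformations were grown overnight at 37°C or 30°C on LB agar with or without 25 μg/mL kanamycin, together with 100 μg/mL carbenicillin, 50 μM IPTG and 0.2% rhamnose. Colonies were pooled and amplicon-sequenced on an Illumina HiSeq 2500. Fitness from DiMSum is the error-weighted combination of wild-type-normalised replicate fold changes, kanamycin over none.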

| Sequence | self-splicing fitness (ln) (30 °C) | self-splicing fitness (ln) (37 °C) |
| --- | --- | --- |
| CUGUAGCAAUAUUACGUAAU | -3.88 ± 0.3 | -3.29 ± 0.37 |
| CUGUAGCAAUAUUACGUUAG | -2.72 ± 0.11 | -1.77 ± 0.11 |
| CUGUAGCAAUAUUACGUUCA | -3.47 ± 0.24 | -1.45 ± 0.15 |
| CUGUAGCAAUAUUACGUUUA | -3.7 ± 0.32 | -2.51 ± 0.16 |
| CUUAAGCAAUAUUACGAACU | – | -2.61 ± 0.38 |
| CUUAAGCAAUAUUACGAAUG | -0.541 ± 0.092 | -0.0976 ± 0.12 |
| CUUAAGCAAUAUUACGAAUU | -3.26 ± 0.22 | -0.957 ± 0.17 |
| CUUAAGCAAUAUUACGACCA | -3.3 ± 0.4 | -2.04 ± 0.4 |
| CUUAAGCAAUAUUACGACUG | 0.139 ± 0.087 | -0.589 ± 0.13 |
| CUUAAGCAAUAUUACGAGCC | – | -3.51 ± 0.48 |
| CUUAAGCAAUAUUACGAUAA | – | -3.18 ± 0.35 |
| CUUAAGCAAUAUUACGAUUC | -4.19 ± 0.46 | -2.07 ± 0.26 |
| CUUAAGCAAUAUUACGCCGU | -3.13 ± 0.34 | -1.88 ± 0.37 |
| CUUAAGCAAUAUUACGCGAA | -2.82 ± 0.24 | -2.82 ± 0.34 |
| CUUAAGCAAUAUUACGCGCU | -3.35 ± 0.22 | -2.5 ± 0.27 |
| CUUAAGCAAUAUUACGCGGU | -2.59 ± 0.14 | -2.35 ± 0.22 |
| CUUAAGCAAUAUUACGGAUC | -1.71 ± 0.23 | -2.11 ± 0.44 |
| CUUAAGCAAUAUUACGGCGG | -1.25 ± 0.095 | -0.194 ± 0.083 |
| CUUAAGCAAUAUUACGGGAA | -2.9 ± 0.3 | -2.85 ± 0.32 |
| CUUAAGCAAUAUUACGGGCU | -3.84 ± 0.23 | -2.98 ± 0.25 |
| CUUAAGCAAUAUUACGGGGA | -3.46 ± 0.29 | -2.16 ± 0.18 |
| CUUAAGCAAUAUUACGGGUC | -4.47 ± 0.34 | -2.98 ± 0.23 |
| CUUAAGCAAUAUUACGUAGG | -2.58 ± 0.1 | -1.35 ± 0.14 |
| CUUAAGCAAUAUUACGUCGG | -1.66 ± 0.097 | -0.424 ± 0.11 |
| CUUAAGCAAUAUUACGUGGG | -4.03 ± 0.17 | -2.26 ± 0.12 |
| CUUAAGCAAUAUUACGUUCU | -2.91 ± 0.19 | -2.14 ± 0.21 |

| Sequence | self-splicing fitness (ln) (30 °C) | self-splicing fitness (ln) (37 °C) |
| --- | --- | --- |
| CUUCAGCAAUAUUACGAAAC | -0.955 ± 0.5 | – |
| CUUCAGCAAUAUUACGAAGU | -2.31 ± 0.17 | -2.66 ± 0.38 |
| CUUCAGCAAUAUUACGAAUU | -2.66 ± 0.19 | -0.66 ± 0.13 |
| CUUCAGCAAUAUUACGACCG | 0.185 ± 0.083 | -0.454 ± 0.12 |
| CUUCAGCAAUAUUACGAGAA | – | -0.0336 ± 0.41 |
| CUUCAGCAAUAUUACGAGAG | -2.81 ± 0.12 | -1.79 ± 0.14 |
| CUUCAGCAAUAUUACGAGUA | -1.21 ± 0.4 | – |
| CUUCAGCAAUAUUACGCCGC | -3.14 ± 0.37 | -2.43 ± 0.35 |
| CUUCAGCAAUAUUACGCUUG | -2.94 ± 0.14 | -1.22 ± 0.12 |
| CUUCAGCAAUAUUACGCUUU | – | -2.85 ± 0.31 |
| CUUCAGCAAUAUUACGGGUA | -3.12 ± 0.22 | -3.74 ± 0.28 |
| CUUCAGCAAUAUUACGUAGG | -1.49 ± 0.1 | -0.863 ± 0.12 |
| CUUCAGCAAUAUUACGUGCG | -2.43 ± 0.09 | -0.814 ± 0.099 |
| CUUCAGCAAUAUUACGUUCC | -2.64 ± 0.43 | -1.71 ± 0.36 |
| CUUCAGCAAUAUUACGUUCG | -0.922 ± 0.067 | -0.372 ± 0.092 |
| CUUCAGCAAUAUUACGUUUA | -3.96 ± 0.3 | -2.49 ± 0.23 |
| CUUCAGCAAUAUUACGUUUC | -2.93 ± 0.17 | -2.17 ± 0.2 |
| CUUGAGCAAUAUUACGACAC | – | -3.08 ± 0.47 |
| CUUGAGCAAUAUUACGACUC | – | -1.67 ± 0.42 |
| CUUGAGCAAUAUUACGAGUU | -4.15 ± 0.23 | -2.33 ± 0.17 |
| CUUGAGCAAUAUUACGCCAU | -2.92 ± 0.22 | -3.8 ± 0.46 |
| CUUGAGCAAUAUUACGCCGC | -1.08 ± 0.47 | – |
| CUUGAGCAAUAUUACGCCUU | – | -2.47 ± 0.37 |
| CUUGAGCAAUAUUACGCGAA | -3.53 ± 0.4 | – |
| CUUGAGCAAUAUUACGCGAG | -3.64 ± 0.16 | -2.82 ± 0.23 |
| CUUGAGCAAUAUUACGGGAC | -3.63 ± 0.29 | -2.56 ± 0.3 |

From the supplement of paper PMC7877785
